Test results: paper doi:10.1101/2022.04.25.489347

Columns and labels:
[1] = target: AtFKBP43 (1-164) (Arabidopsis thaliana) (UniProt F4J9Q6); assay: pull-down
[2] = target: AtFKBP43 (1-136) (Arabidopsis thaliana) (UniProt F4J9Q6); assay: pull-down
AtFKBP43 (1-136) (Arabidopsis thaliana), sequence (F4J9Q6 1-136): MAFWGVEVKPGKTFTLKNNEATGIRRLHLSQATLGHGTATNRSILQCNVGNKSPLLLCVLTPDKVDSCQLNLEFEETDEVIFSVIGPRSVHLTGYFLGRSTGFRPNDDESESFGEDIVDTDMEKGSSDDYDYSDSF

AtFKBP43 (1-164) (Arabidopsis thaliana), sequence (F4J9Q6 1-164): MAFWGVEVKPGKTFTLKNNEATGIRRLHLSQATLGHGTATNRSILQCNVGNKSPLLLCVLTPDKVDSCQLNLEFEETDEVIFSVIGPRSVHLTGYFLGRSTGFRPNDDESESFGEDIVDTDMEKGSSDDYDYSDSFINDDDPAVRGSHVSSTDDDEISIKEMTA

H3/H4 tetramer (from UniProt P84233 1-136; P62799 1-103) (complex)
NaCl concentration up to which the complex was stable [1]: 1 M | NaCl concentration up to which the complex was stable [2]: 1 M

H2A/H2B dimer (from UniProt P06897 1-130; P02281 1-126) (complex)
NaCl concentration up to which the complex was stable [1]: 0.3 M | NaCl concentration up to which the complex was stable [2]: 0.3 M
